B1: Membrane protein (Human SARS coronavirus), P59596 (parent)
chain: MADNGTITVEELKQLLEQWNLVIGFLFLAWIMLLQFAYSNRNRFLYIIKLVFLWLLWPVTLACFVLAAVYRINWVTGGIAIAMACIVGLMWLSYFVASFRLFARTRSMWSFNPETNILLNVPLRGTIVTRPLMESELVIGAVIIRGHLRMAGHSLGRCDIKDLPKEITVATSRTLSYYKLGASQRVGTDSGFAAYNRYRIGNYKLNTDHAGSNDNIALLVQ

Variants of: B1
Conditions: with ncap_sars N

Variant	effect of a mutation on the interaction
L218A;L219A	with no effect
